Assay results published in publication PMC2835468 (Matrix biology : journal of the International Society for …, 2009).

Assays:
Assay in all cases: enzyme inhibition kinetics
[1] = biological target: T1, ADAMTS5-4 (human ADAMTS-5 deletion mutant, C-terminal FLAG-tag) (human, UniProt Q9UNA0 262-622)
T1 sequence (looked up): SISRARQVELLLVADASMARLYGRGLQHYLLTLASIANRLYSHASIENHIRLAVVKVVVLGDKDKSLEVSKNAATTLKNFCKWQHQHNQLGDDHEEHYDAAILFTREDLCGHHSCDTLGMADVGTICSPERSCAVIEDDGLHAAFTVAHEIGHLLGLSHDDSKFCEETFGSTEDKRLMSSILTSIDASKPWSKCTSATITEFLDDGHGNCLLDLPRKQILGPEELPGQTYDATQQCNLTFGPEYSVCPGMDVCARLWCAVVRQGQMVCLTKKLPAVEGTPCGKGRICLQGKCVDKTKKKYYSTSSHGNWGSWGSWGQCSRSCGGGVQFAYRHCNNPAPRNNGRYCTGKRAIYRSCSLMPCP

[2] = biological target: T2, ADAMTS5-1 (full-length human ADAMTS-5, C-terminal FLAG-tag) (human, UniProt Q9UNA0 262-930)
T2 sequence (looked up): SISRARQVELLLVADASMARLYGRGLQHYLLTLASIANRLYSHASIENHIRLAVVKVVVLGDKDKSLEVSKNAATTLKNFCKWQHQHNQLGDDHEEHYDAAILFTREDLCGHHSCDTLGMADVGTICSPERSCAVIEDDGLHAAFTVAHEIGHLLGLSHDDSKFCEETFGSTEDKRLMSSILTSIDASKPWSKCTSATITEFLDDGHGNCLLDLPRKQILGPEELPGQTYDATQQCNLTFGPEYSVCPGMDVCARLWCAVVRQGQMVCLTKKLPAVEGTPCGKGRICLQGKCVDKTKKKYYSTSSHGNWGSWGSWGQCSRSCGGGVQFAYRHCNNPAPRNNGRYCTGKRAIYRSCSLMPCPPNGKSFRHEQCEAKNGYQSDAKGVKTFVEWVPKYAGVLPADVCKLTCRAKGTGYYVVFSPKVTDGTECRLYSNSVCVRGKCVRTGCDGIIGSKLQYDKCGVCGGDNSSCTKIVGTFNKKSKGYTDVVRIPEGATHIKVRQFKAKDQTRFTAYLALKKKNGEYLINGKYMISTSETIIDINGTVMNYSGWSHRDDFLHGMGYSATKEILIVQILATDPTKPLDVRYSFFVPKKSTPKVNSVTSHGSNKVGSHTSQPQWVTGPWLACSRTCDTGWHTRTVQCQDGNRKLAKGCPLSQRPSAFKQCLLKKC

[3] = biological target: Catalytic domain of human MMP-3 (MMP-3cat) (human, UniProt P08254 100-272)
Catalytic domain of human MMP-3 (MMP-3cat), sequence (P08254 100-272): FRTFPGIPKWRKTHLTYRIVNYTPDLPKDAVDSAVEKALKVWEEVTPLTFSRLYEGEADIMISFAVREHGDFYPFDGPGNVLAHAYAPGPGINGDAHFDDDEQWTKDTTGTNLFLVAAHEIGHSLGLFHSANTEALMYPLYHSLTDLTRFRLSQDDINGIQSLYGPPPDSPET

[4] = biological target: T3, Catalytic domain of human MMP-1 (MMP-1cat) (human, UniProt P03956 100-269)
T3 sequence (looked up): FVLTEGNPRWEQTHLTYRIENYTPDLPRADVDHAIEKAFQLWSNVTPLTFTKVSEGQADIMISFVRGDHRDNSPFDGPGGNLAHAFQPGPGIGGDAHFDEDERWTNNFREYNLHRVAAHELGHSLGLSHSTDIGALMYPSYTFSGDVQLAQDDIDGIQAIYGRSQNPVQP

[5] = biological target: T4, ADAMTS4-4 (human ADAMTS-4 deletion mutant, C-terminal FLAG-tag) (human, UniProt O75173 213-519)
T4 sequence (looked up): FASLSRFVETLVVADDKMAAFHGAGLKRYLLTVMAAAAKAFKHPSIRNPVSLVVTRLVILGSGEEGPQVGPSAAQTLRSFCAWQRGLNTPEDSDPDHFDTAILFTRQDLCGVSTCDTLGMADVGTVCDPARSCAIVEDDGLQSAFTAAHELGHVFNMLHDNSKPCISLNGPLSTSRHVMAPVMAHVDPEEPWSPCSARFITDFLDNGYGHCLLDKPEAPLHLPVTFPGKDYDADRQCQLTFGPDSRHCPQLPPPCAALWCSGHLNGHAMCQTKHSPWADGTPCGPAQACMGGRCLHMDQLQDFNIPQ

Ki [1]: 1.13 nM | Ki [2]: 0.63 nM | Ki [3]: 1 nM | Ki [4]: 1.1 nM | Ki [5]: 0.51 nM
B1: FLAG-tagged glycosylated human TIMP-3 (full-length tissue inhibitor of metalloproteinases 3), expressed in HEK293 (natural protein, UniProt P35625 24-211, looked up)
chain: CTCSPSHPQDAFCNSDIVIRAKVVGKKLVKEGPFGTLVYTIKQMKMYRGFTKMPHVQYIHTEASESLCGLKLEVNKYQYLLTGRVYDGKMYTGLCNFVERWDQLTLSQRKGLNYRYHLGCNCKIKSCYYLPCFVTSKNECLWTDMLSNFGYPGYQSKHYACIRQKGGYCSWYRGWAPPDKSIINATDP
modifications: glycosylated (only the 27 kDa glycosylated form remained after purification; single N-glycosylation site in the C-terminal domain)
